Experimental data published in paper PMC6212441, “Direct visualization of DNA baton pass between replication factors bound to PCNA” (Scientific Reports, 2018).

Key:
[1] = target: T1, P. furiosus DNA ligase (Lig) (Pyrococcus furiosus, UniProt P56709 1-561); test: negative-stain electron microscopy, single particle analysis; wild type FEN, Lig, PCNA and nonligatable nicked DNA (Substrate-B) mixed in 20 mM MES pH 6.5, 50 mM NaCl, 0.1 mM ATP, 5 mM MgCl2, 50 °C 10 min; complex isolated on Superdex 200 without crosslinking; 2% uranyl acetate stain; two classes, maps at 16 Å and 20 Å with crystal structures fitted; details: both partners purified
T1 construct: DNA ligase (Lig) of Pyrococcus furiosus, with DBD, AdD and OBD domains and the PIP-box motif 103-QKSFF-107
T1 sequence: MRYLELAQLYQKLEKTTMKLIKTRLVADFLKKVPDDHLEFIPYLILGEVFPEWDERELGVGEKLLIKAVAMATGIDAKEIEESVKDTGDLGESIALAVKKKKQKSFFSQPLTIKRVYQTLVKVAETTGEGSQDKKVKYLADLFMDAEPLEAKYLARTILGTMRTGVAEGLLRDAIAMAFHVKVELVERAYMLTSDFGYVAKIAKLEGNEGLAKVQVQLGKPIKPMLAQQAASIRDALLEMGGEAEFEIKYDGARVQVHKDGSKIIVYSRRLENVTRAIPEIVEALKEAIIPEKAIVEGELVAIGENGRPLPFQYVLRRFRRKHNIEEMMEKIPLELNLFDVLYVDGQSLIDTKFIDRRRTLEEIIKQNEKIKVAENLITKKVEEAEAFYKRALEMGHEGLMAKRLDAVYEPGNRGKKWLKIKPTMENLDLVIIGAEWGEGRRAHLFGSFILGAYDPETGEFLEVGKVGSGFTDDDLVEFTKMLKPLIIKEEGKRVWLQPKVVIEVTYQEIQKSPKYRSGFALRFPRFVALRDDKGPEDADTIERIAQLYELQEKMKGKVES

[2] = target: T2, P. furiosus proliferating cell nuclear antigen (PCNA) (Pyrococcus furiosus), O73947; test: negative-stain electron microscopy, single particle analysis; FEN (D175A), PCNA and double flap DNA (Substrate-A) mixed in 50 mM Tris-HCl pH 8.0, 50 mM NaCl, 37 °C 10 min; complex isolated on Superdex 200 without crosslinking; 2% uranyl acetate stain; map at 19 Å with crystal structures fitted; details: remark: other sources report otherwise
T2 chain: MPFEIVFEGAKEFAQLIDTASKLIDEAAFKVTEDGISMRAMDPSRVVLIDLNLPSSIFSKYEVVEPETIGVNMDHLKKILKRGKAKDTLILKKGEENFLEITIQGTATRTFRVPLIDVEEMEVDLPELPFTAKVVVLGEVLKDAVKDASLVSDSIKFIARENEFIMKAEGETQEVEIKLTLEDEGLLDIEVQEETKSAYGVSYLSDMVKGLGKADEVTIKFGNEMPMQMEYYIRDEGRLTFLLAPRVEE

B1: P. furiosus proliferating cell nuclear antigen (PCNA) (natural protein, Pyrococcus furiosus)
chain: T2 chain
notes: proliferating cell nuclear antigen (PCNA) of Pyrococcus furiosus, forms a homotrimeric ring; also called PCNA clamp; PCNA ring
B1 was tested, and the binding result [1] was “binds” and the stoichiometry N [2] was 3.
